Experimental data published in the DeepSol protein solubility set.

Assay: soluble on expression in E. coli; label from the status in PepcDB or PDB records

Soluble on expression in E. coli, soluble:
METPIAEELAKKQKSISVAEFFEKNRQILGFDSAPRSLITTVKEAVDNALDACEEAGILPDILVQVERTGPDYVTVIIEDNGPGIVREQIPKVFAKLLYGSRFHALKQSRGQQGIGISAAVLYAQMTAGRHTKILSKTSPTAPAHYYELMINTSTNEPDILVDEVRDWFRPHGTQIELEMRAAYVKGRRQSIYEYLKATAIVNPHARITLIDPDGNEEVFERATDKMPEPAEEILPHPEGIELGTLMKMLHYTERQKLAPFLRYSFCKIGLLTAEEICKAAGLDPEIDPHALGRHEARKLIEAFEKVKIMAPPTDCLSPIGEDLIYRGLEKETTVDFIATSTRKPAVYSGNPFVVEVGMAYGGNLPKEEKISIMRFANRVPLLYQQGGCVTTHAVEDIKWKQYGLNQPGGGIPVGPVILLIHVASINVPFTSESKDAIADIPVIKEEIDLAIKEVARKLKHYLSKQSNLKKRREKEIIITKVLPKLAAKVAHVLEKDVPDINPVVAKIMGNLLVHRVIKNNGDGTVDVAIKVKNFGTSAYSFRVHEMLPCKVSGAKPEPKVVTMGNDYDYVWDISASAGSSKVLSYKIESASEEELQKLPQLIVEGIEEELVTGAKAFKGV
MFREESRSVPVEEGEVYDVTIQDIARQGDGIARIEGFVIFVPGTKVGDEVRIKVERVLPKFAFASVVE
GMSADIVFDRGSPSDIDEIKTFTSNTWKVGYYTDLYSKLADTGTMDDYVDKVIERWVNDGSVYVLRVSGRPVATIHMEKLPDGSVMLGGLRVHPEYRGSRLGMSIMQETIQFLRGKTERLRSAVYSWNEPSLRLVHRLGFHQVEEYPIYTFQGGSTAVPALKPVNERYAGRWRCFFIDWKYMCSDDPDIIHEEYSNNLIVDGSTFVYFDIYEGGIDLFVNDSDDASSFIEKYRSMNGRITFYVRKALANGLPYVPASSLTVWEYRY
MNWHPAACKISAKGGYLRVIIDASNVAHSRKNDEEKPCIENILSAAEELEKLGYEPVIIADASLRHEIDDKEQFRKLLEEGKFQQVPSGTSADHFILKMAEEEDAKILSNDVFRDYKDEFQDINSRRIPYTFREDKILIGTSGKPKKVKNILQKICNEALREFERKRIDAYKVKRGKKLSGIAIAKEAIDRISRSQEEGLEPRLEGIFMKLPLFERFMSMVEEVERTSNYIIFVLVHPKDYRDAVKYAGNIAVTVGDRLKLEHAPLVAVRNDLFLKPGTFELNIMYSEDVMEEAPYNVNITINDHDYSFVKKNSRNIASTLAARIGSWRFPIVSVKPSMLLEKPGEFEVVLEKGGNDLEHHHHHH

Soluble on expression in E. coli, not soluble:
MRGGSSLDSFPGKGTLHTLEIENFKSYKGKHTIGPFTRFTAIIGPNGSGKSNLMDAISFVLGEKPSSLRVRKYADLIHGAPINKPVAKKCRVTMNYKYSDGKVKAFTRGVNNGTSEHLLDGQTVTSAAYSQEMESINIFIKARNFLVYQGAIENIAMKTPKERTQLFEELSRSHEFQAEYERLKVEMTKAEDDTQHNMNKRRGIAQEKREAKMEKDEAEKYQTMKNELAAKSTMLFLHQLFHCERTIDESKEEINAQKKTIASLEATRSKEEAKIAAVHQEHRKALREVQKMTRKLDQKETDLAEKQQNMLTLKVSVAHEHKKLEIAKKMLAAAESKAENNSTQLADLKKSKKELEKKKAAYEAEIQDMMQRGELNLSDEQVREYGQLKDQAQRESAMVQRELLMAEQVFEGDKSSLNHELRRQKEHQERVKAKEGDVRRIETQIATLAQRIKETEEETKILKADLKKIENDVVIDKSAAAEYNKELVAVVRQLSEASGDSAEGERNQRRTEALEGLKKNFPESVYGRLVDLCQPSHKRFNIATTKILQKHMNSIVCDTEETAAKAIVYLKDHRYPPETFLPNDALVVNPLNEKLREIKKPAGVKLVFDVINPQHQAARKALQFVCGNALVCESQEDAKQLAYGGGELKDRFKAVSMDGTLFQQSGVMSGGSADLRQKSKKWDEKVVKQLREKRNQLNEKIADLQKHRRRELEVESVRSKINGNEQRLAMMKRDLKNMREMQLERLQNELEGMTAEMNMLPPRISNCQEKLERSESTLKSLQTKSNEVADRIFADFCTRVGIASIRDYENREMRIKQEMEDKLRSFDDDIQKLAYEIDFVTEQDGNRKVEVEKEKVSQIDRQYKDMKKKEKTAAAALKEHTESMEQDKEVLEEKKALSHKLETEWNEVKKIAQVAMKDFTKAEKELLRLESLLTKKQYERHSLLHSVKLGQIALPLKSGSMADVEYEEDDGDIYFIIFVSLFPFKFQLISDDTASQSSQSATDGPSVSEEQIQREQHIKINYDSLPREYKDVDDDDGVRQMSNRLNVEIDELQKNVSKMNAPNLKANQRMAEVKEREAESTEELENARKKAKRIRQQFEKVKTDRYRRFQDFFDPVANTIDDIYKQLSRNTSAQAFLGADNMEEPYLDGIQYNCVAPGKRFRPMDNLSGGEKTIAALALLFAVHGRNPAPFFVLDEIDAALDNTNIGKVASYICESAREHMQIIVISLKEEFYNKADSLIGIFPYPAACTTSGVLTFDLTRFKQIGLNEMTENPPTPSIAT
SKRKARRGAGMPDYETVALVLQGGGALGAYQAGVYEGLHAAGIRPNWLAGISIGGINAAIIAGAPVDERVGRLRGFWEAICRPTGFVGLPWGDAWAALFANAPFGFGSNQSNGQLAAFNALTRGQPGFFEPRFPPPYLVQGGGAAATSFYDTTPLLQTLRDYVDFDLLNRGDVRVSLGAVNVRTGNFAYFDSRETVIRPEHVMASGALPPGFPAIEIDGEFYWDGGLVSNTPLTKVLAVHPMRDTLAFQVDLWPARGPLPTSLEEVAERQKDIQYSSRTRIVTDTFRRQLKLRRSLQRVLDRLPPQVRSSRELAQIRREACTPLVNVVNLIYEANQFERHSKDYEFNTESMREHWRFGLADIERTLAQPGV
MGSDKIHHHHHHMEFIPPKRLLELIRQYSTTFENWHSVMLSIYLHKERIKCKLRNGQLLYLKPNEIVLLAGLKIVELNEDSVRFQFNGREICLKGWKLSYPGDSFSDYWRIDVRGKRVLDIGAGIGDSPIYFSIAGAKEVVAVEVDSKKVELMRENLKANSINNVIVVDKGVGIKDDENYISWPKLISNYGPFDVAKIDCDGCEKIIVPYIKEIPSLLIEWDYNYKDIVSNLTKNGYKVKVEHTLKNLGFIYAKKR
MCWYGDPGATYRYSGVSHQPSPWHEVLADLRTRIEAFSGHVFNAVLCNRYRSGRDSMGWHADDEPELGERPFIASLSLGAERLFRIRHRGTGRTLDVPLRDGDLLLMGGELQSHWRHCVPRTARPCGERINLTFRRVVPRSLEHHHHHH
MSLEDVIEQLRELNEPVPVPLELPDEDLLVEIEEQLLINLPFELREFLMKVSDVIYGSLEPVTVSDPQSHTYLPEVAAVAWDQGMPRDMVPLCQVGDDYYAVDIEGQVLLWSSDSGELSDESWDSVWHWAKDVWLASEGHHHHHH
MGSDKIHHHHHHMQRLMNNIMKVENFLAQKSINYDKIDRFLMFRMYEKYKKYFKNIPIIQLIGTNGKGSTGRYLTQLLENLNYKIGHYTSPHIFSFNERFYLDGKIANDEELEQAHIRLEEIFKQDLQKLSYFEYATFLAMILFQKCDFIVLEAGVGGEYDATSIFERRMSIFTRIGFDHIQILGNSLEDIARTKLKVMAPIALISDEQEQNVLNLAKKIAFLKKANLQVSSLNPFLKEKFEIYCKKFVLPYFLKHNLKLALKACEILTSQEKTLEALKKLQELNLQGRCQEISPNFFVDVGHNPMAAKAMLDKFQGEKINLIYNAYLDKDIFQILNTLKPIIDTIQIYKYKSAERKLADDEIYSIASKLGMQCKEFVKLEENKKNLVFGSFMLVENFLKEWCGKK
GSDALVGRLVKSSWDMKSLDLHSMLVETMSKSDHVLIVGFGRGGQTVGRVLAQEDIPYFALDLDIARVQVARSAGEPVSFGDAKRREVLEAAGLGRAKMVVVTLNNMHETQHVLDNVLSMYPNMPVYVRATNDDYVKTFTDIGAEEAVSDTKETGLVLAGYAMLGNGASYRHVYQTMANIRHSRYAALEGLFVGSDDEAGFGENGETVRHAFPLAAEAYAVGKTVGTLPMAAYGIKLLFVRRRTGRIENPDASFTLEGGDVLVVAGKKEEIISFENWSLQGI
